# Laboratory results taken from PMC3438196.
# Target: Apobec3G R11S MAPPIT bait (human) (UniProt Q9HC16)
# Assay: two-hybrid; MAPPIT (mammalian two-hybrid) in intact HEK293T cells: bait on the EpoR/leptin receptor chimera, prey on gp130 fragments, pXP2d2-rPAP1-luciferase reporter; fold induction of luciferase, Epo-stimulated (10 ng/ml hEpo) over unstimulated; 6-well or 96-well calcium phosphate transfection
# Sequence of Apobec3G R11S MAPPIT bait (human) (Q9HC16 whole entry R11S, the tested form may be a part): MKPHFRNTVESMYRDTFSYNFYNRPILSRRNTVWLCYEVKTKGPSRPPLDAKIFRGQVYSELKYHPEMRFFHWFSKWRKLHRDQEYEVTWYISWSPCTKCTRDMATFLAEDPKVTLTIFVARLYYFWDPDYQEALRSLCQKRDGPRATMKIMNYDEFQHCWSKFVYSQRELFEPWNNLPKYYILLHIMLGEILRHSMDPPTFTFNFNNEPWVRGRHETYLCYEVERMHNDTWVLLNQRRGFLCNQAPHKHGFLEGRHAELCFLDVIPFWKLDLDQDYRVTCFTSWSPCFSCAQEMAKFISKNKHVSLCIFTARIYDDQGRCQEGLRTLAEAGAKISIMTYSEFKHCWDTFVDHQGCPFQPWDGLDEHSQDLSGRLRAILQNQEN
substance,measurement,value
Gagpol MAPPIT prey (pMG2-Gagpol) (natural protein),"MAPPIT signal, % of WT",83 % of WT
